In patent US20230322958A1 (Genentech, published 2023):
Like-named read-outs stand apart in the source and are kept apart here.

T1: huNotch1 (human)
T1 construct: The entry named huNotch1 is a tagged EGF-repeat fragment; also called human Notch1
T1 chain: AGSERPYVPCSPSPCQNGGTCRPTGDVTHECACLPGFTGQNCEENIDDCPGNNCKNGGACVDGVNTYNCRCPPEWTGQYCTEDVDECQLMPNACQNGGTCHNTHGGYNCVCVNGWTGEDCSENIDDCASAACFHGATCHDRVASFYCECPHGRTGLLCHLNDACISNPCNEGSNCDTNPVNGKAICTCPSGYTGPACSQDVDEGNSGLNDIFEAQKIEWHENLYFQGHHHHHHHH

T2: huNotch3 (human)
T2 construct: The entry named huNotch3 is a tagged EGF-repeat fragment; also called human Notch3
T2 chain: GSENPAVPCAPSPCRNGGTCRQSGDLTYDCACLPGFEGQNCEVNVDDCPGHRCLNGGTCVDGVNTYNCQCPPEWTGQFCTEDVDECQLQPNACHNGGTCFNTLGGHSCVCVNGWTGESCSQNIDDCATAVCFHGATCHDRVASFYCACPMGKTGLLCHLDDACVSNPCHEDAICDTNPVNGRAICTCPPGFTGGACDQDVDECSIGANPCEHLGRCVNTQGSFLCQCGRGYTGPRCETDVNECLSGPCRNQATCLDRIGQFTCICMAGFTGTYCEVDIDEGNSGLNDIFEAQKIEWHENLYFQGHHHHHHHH

T3: huNotch2-EGF6-10 (human, UniProt Q04721 219-418)
T3 construct: also called human Notch2 EGF6-10
T3 sequence: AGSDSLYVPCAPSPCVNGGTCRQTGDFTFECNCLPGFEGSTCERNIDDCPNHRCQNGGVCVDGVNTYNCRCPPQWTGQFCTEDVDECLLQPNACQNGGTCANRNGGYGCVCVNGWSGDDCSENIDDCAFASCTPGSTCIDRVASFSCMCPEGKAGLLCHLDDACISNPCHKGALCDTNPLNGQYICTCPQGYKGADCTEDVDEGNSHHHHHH

T4: huNotch2-EGF4-7 (human)
T4 chain: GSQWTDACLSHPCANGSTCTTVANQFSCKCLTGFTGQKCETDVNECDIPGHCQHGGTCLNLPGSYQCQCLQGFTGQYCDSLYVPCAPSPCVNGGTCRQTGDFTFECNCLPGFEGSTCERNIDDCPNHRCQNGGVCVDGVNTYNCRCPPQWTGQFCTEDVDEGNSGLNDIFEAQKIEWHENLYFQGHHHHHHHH

T5: huNotch2-EGF5-8 (human)
T5 chain: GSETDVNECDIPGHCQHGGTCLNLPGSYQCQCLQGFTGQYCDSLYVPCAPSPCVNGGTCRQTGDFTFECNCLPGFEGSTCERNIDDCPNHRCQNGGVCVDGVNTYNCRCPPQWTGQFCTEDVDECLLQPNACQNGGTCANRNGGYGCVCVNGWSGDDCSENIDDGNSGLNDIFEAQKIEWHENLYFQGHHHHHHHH

T6: huNotch2-EGF7-9 (human)
T6 chain: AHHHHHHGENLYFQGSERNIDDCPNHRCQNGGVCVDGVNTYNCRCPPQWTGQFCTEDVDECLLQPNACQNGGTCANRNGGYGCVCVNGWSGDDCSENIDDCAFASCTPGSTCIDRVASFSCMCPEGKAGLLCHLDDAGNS

T7: muNotch2-EGF6-12.K268R (mouse)
T7 chain: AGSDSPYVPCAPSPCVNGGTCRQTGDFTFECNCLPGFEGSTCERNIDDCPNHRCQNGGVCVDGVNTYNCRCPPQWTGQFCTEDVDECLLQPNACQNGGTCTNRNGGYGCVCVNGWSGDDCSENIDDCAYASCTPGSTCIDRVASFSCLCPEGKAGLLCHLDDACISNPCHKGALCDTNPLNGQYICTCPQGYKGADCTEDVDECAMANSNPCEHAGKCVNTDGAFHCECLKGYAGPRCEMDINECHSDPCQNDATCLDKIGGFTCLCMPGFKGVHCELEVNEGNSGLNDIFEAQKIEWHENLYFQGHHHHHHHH

T8: gpNotch2-EGF6-12 (guinea pig)
T8 construct: also called guinea pig Notch2 EGF6-12
T8 chain: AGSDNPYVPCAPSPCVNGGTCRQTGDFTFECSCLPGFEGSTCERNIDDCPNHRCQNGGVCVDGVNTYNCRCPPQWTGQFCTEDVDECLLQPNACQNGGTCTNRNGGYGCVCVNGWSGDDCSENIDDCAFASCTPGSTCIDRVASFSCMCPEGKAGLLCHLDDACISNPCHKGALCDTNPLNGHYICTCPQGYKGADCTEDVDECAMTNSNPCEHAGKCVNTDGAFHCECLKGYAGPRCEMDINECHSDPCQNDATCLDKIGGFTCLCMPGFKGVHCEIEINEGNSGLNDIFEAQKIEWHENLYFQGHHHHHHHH


How the values were obtained:
huNotch1 = biological target: T1, huNotch1; test: SPR
huNotch3 = biological target: T2, huNotch3; test: SPR
[1] = biological target: T9, human Notch2 on U-87 MG cells (human, UniProt Q04721 26-2471); test: cell-based or functional assay
T9 sequence (Q04721 26-2471): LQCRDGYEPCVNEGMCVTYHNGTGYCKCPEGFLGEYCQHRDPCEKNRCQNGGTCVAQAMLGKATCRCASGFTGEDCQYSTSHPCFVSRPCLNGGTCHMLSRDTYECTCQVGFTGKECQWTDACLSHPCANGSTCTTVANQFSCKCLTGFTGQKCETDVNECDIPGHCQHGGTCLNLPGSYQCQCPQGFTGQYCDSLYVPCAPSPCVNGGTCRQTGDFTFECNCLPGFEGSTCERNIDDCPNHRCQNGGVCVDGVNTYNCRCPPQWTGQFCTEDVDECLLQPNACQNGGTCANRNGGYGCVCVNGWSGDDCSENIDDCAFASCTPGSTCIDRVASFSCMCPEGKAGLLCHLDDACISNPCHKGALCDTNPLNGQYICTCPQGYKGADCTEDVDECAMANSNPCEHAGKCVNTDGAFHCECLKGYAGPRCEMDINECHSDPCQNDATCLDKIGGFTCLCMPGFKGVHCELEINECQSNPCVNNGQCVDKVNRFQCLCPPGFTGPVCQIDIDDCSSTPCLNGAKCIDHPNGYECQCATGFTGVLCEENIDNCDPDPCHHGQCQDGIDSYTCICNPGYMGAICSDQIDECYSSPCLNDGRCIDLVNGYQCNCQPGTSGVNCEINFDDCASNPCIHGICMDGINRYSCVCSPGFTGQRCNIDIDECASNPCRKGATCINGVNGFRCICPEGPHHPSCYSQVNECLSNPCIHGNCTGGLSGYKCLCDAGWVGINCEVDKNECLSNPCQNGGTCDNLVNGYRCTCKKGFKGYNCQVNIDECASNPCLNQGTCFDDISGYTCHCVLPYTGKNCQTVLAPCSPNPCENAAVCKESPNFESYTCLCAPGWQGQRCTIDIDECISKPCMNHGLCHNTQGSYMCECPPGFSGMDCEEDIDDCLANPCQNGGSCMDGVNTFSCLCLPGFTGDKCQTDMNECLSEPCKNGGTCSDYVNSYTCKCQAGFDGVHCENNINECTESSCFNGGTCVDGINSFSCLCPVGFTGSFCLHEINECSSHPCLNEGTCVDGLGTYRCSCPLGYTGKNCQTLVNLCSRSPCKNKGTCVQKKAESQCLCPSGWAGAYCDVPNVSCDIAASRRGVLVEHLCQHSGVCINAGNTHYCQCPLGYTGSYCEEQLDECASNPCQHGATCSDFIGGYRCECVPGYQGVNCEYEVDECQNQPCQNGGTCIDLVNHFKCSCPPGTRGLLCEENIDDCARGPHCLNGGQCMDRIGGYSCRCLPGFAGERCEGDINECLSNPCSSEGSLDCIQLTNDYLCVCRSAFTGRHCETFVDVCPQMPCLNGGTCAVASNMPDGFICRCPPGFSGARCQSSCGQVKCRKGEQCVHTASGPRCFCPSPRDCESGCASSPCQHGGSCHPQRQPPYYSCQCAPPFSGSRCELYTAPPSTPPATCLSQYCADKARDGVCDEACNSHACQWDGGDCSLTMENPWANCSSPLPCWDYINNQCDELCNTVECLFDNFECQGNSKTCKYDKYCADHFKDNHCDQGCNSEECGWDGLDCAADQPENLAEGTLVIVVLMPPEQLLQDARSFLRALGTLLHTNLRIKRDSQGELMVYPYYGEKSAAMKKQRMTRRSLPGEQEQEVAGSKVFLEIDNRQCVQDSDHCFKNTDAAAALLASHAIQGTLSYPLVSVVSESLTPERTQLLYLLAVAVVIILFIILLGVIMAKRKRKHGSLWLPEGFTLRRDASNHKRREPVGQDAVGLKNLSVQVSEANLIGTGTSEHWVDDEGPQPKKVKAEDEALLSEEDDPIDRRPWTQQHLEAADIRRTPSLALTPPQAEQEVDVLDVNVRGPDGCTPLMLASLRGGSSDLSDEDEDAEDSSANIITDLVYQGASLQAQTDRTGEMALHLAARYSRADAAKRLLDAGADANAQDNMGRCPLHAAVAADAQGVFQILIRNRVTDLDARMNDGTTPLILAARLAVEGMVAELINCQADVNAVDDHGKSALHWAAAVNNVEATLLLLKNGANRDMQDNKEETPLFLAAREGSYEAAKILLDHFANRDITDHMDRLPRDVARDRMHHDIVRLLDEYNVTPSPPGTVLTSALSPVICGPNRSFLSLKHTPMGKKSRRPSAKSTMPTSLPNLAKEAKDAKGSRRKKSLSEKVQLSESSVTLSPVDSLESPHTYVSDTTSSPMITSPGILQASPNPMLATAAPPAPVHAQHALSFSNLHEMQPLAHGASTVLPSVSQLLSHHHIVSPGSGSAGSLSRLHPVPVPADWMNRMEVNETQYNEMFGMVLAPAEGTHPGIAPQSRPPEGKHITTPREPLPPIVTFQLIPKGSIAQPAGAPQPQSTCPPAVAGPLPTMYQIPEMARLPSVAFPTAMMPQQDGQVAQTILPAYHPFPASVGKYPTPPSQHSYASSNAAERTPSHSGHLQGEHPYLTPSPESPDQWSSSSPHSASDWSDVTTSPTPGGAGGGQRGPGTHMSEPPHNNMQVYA

huNotch2-EGF6-10 [2] = biological target: T3, huNotch2-EGF6-10; test: SPR BIAcore T200, antibody captured on protein A, 37 C
Procedure: (§1) The binding affinities of the antibodies was determined by BIAcore™ T200 machine. Rabbit antibodies were expressed as chimeric antibodies with rabbit variable domains and human constant domains. Rat antibodies were expressed as chimeric antibodies with rat variable domains and human constant regions. Humanized antibodies were expressed in the human IgG1 backbone. For kinetics measurements, antibodies were captured on research grade protein A chip (GE Healthcare) to achieve approximately 300 RU. Ten-fold serial dilutions of huNotch2-EGF6-10 were injected in HBS-P buffer with additional 3 mM CaCl₂ at 37° C. with a flow rate of 100 μL/min. Association rates (ka) and dissociation rates (kd) were calculated using a 1:1 Langmuir binding model (BIAcore™ T200 Evaluation Software version 2.0). The equilibrium dissociation constant (KD) was calculated as the ratio kd/ka.

huNotch2-EGF4-7 = biological target: T4, huNotch2-EGF4-7; test: SPR BIAcore, antibody captured on protein A, 37 C
Procedure: (§2) Binding of the anti-Notch2 antibodies to Notch2 from additional species and to constructs comprising different EGF repeat regions was evaluated by BIAcore™. For this experiment, the antibodies with human constant regions were captured on a protein A chip to achieve approximately 200 RU. Ten-fold serial dilutions of various antigens were injected in HIBS-P buffer with additional 3 mM CaCl₂ at 37° C. with a flow rate of 100 μL/min.

huNotch2-EGF5-8 = biological target: T5, huNotch2-EGF5-8; test: SPR BIAcore, antibody captured on protein A, 37 C
Procedure: as §2

huNotch2-EGF7-9 = biological target: T6, huNotch2-EGF7-9; test: SPR BIAcore, antibody captured on protein A, 37 C
Procedure: as §2

muNotch2-EGF6-12.K268R = biological target: T7, muNotch2-EGF6-12.K268R; test: SPR BIAcore, antibody captured on protein A, 37 C
Procedure: as §2

gpNotch2-EGF6-12 = biological target: T8, gpNotch2-EGF6-12; test: SPR BIAcore, antibody captured on protein A, 37 C
Procedure: as §2

[3] = biological target: T9, human Notch2 on U-87 MG cells; test: cell-based or functional assay; remark: listed apart in the source
huNotch2-EGF6-10 [4] = biological target: T3, huNotch2-EGF6-10; test: SPR BIAcore, separate experiment, substantially as for Table 4
Procedure: as §1
In a separate experiment, the binding affinities of the humanized versions of the rat 3107 antibody were determined, substantially as described above.

[5] = biological target: T9, human Notch2 on U-87 MG cells; test: cell-based or functional assay; remark: listed apart in the source
[6] = biological target: T9, human Notch2 on U-87 MG cells; test: KinExA equilibrium whole-cell analysis on Notch2-expressing U-87 cells
Procedure: After incubation, the cells were centrifuged and the supernatants, containing the free fraction of antibody or Fab construct, were removed without disturbing the cell pellets and transferred onto a KinExA 3200 instrument with autosampler (Sapidyne Instruments Inc). Each supernatant was flowed over a solid phase composed of polystyrene beads (#440176, Sapidyne Instruments Inc) coated with biotinylated goat anti-human Immunoglobulin G (IgG) heavy+light (H+L) (#109-065-003, Jackson ImmunoResearch Laboratories Inc.) or biotinylated Notch2 extracellular domain to capture the free antibody or Fab construct. […] The fluorescent signals were recorded and converted to a voltage signal that is directly proportional to the amount of free antibody or Fab construct in the equilibrated sample. Using the built in Equilibrium Whole Cell analysis method, the KinExA Pro software performed a least squares analysis on the measured data to fit optimal solutions for the KD and the activity of the free antibody or Fab construct to a curve representative of a 1:1 reversible bi-molecular interaction. […] A N-curve analysis was applied for the testing of the two concentrations of antibody or Fab construct to determine the KD on Notch2-expressing U-87 cells.
The binding kinetics were determined using a similar assay format as the one used for the equilibrium analysis, with the exception that measurements were collected “pre-equilibrium” and the binding signals were plotted as a function of time. For the KinExA direct method, anti-Notch2 antibody and Fab formats were incubated with Notch2-expressing U-87 cells at a fixed concentration (Table 12) and aliquots of the cell binding solution were collected at different time points to determine the fraction of free antibody or Fab format. The KinExA Pro software was then used to determine the association rate constant (Kₒₙ).

binding result (huNotch1)	binding result (huNotch3)	Jagged1 IC50 [1] [nM]	Kd (huNotch2-EGF6-10 [2]) [nM]	koff (huNotch2-EGF6-10 [2]) [s⁻¹]	kon (huNotch2-EGF6-10 [2]) [M⁻¹ s⁻¹]	binding result (huNotch2-EGF4-7)	binding result (huNotch2-EGF5-8)	binding result (huNotch2-EGF7-9)	binding result (muNotch2-EGF6-12.K268R)	binding result (gpNotch2-EGF6-12)	Jagged1 IC50 [3] [nM]	Kd (huNotch2-EGF6-10 [4]) [nM]	koff (huNotch2-EGF6-10 [4]) [s⁻¹]	kon (huNotch2-EGF6-10 [4]) [M⁻¹ s⁻¹]	DLL Inhibition (IC50) [5] [nM]	Jag1 Inhibition (IC50) [5] [nM]	Kd [6] [nM]	Binder
no binding	no binding	3.02	2.84	0.000813	286000													hu1B2.v101 (antibody, V domains shown, Human IgG1 backbone) VH: EVQLVESGGGLVQPGGSLKLSCAVSGFTFSDFYMEWVRQASGKGLEWVAAQRNKANDFSIVYSASVKDRFTISRDDSKSTLYLQMNSLKTEDTAVYYCSRDGGRWGLDAWGQGTLVTVSS VL: DIQMTQSPSSVSASVGDRVTITCQTSEDIYSGLAWYQQKPGKSPKLLIYGASRLQDGVPSRFSGSGSGTDYTLTISSLQPEDFATYYCQQGFKYPLTFGGGTKVEIK
		1.59	3.37	0.00131	387000	binds	binds	binds	binds	binds								hu1B2.v102 (antibody, V domains shown, Human IgG1 backbone) VH: EVQLVESGGGLVQPGGSLKLSCAVSGFTFSDFYMEWVRQASGKGLEWVAAQRNKANDFSIVYSASVKDRFTISRDDSKSTLYLQMNSLKTEDTAVYYCSRDGGRLALDAWGQGTLVTVSS VL: DIQMTQSPSSVSASVGDRVTITCQTSEDIYSGLAWYQQKPGKSPKLLIYGASRLQDGVPSRFSGSGSGTDYTLTISSLQPEDFATYYCQQGFKYPLTFGGGTKVEIK
		2.48	3.09	0.0011	357000	binds	binds	binds	binds	binds								hu1B2.v104 (antibody, V domains shown, Human IgG1 backbone; also called hu1B2.v014) VH: EVQLVESGGGLVQPGGSLKLSCAVSGFTFSDFYMEWVRQASGKGLEWVAAQRNKANDFSIVYSASVKDRFTISRDDSKSTLYLQMNSLKTEDTAVYYCSRDGGKLALDAWGQGTLVTVSS VL: DIQMTQSPSSVSASVGDRVTITCQTSEDIYSGLAWYQQKPGKSPKLLIYGASRLQDGVPSRFSGSGSGTDYTLTISSLQPEDFATYYCQQGFKYPLTFGGGTKVEIK
		2.1	5	0.00182	363000	binds	binds	binds	binds	binds	4.88	9.12	0.00312	342000				rat.3107 (rat/human chimeric anti-Notch2 antibody 3107) (antibody, V domains shown) VH: QVQLQQSGAELAKSGSSVKISCKASGYTFSNYVIHWIKQTTGQAPEWTGYIIPGSGGTKFNEKFKGKATLTVDKSSTTAYMQLSSLTPVDTAVYYCARDGAGSFTYWGQGTLVTVSS VL: DVLMTQTPVSLPVSLGGQVSISCRSSQSLVHSDGNTYLHWFLQKPGQSPQLLIYRISNRFSGVPDRFSGSGSGTDFTLKISRVEPEDLGVYYCLQSTHFPDTFGGGTKVEIK
															> 700	0.5	0.0335	1B2.v104.huFab.LC_K149C.dPEG_trimer (other, engineered Cys (K149C) joined through maleimide to Tri(Mal-PEG2-amide)-amine, also called 1B2.v104 Fab trimer; aN2.1B2.Fab-trimer) heavy: EVQLVESGGGLVQPGGSLKLSCAVSGFTFSDFYMEWVRQASGKGLEWVAAQRNKANDFSIVYSASVKDRFTISRDDSKSTLYLQMNSLKTEDTAVYYCSRDGGKLALDAWGQGTLVTVSSASTKGPSVFPLAPSSKSTSGGTAALGCLVKDYFPEPVTVSWNSGALTSGVHTFPAVLQSSGLYSLSSVVTVPSSSLGTQTYICNVNHKPSNTKVDKKVEPKSCD light: DIQMTQSPSSVSASVGDRVTITCQTSEDIYSGLAWYQQKPGKSPKLLIYGASRLQDGVPSRFSGSGSGTDYTLTISSLQPEDFATYYCQQGFKYPLTFGGGTKVEIKRTVAAPSVFIFPPSDEQLKSGTASVVCLLNNFYPREAKVQWCVDNALQSGNSQESVTEQDSKDSTYSLSSTLTLSKADYEKHKVYACEVTHQGLSSPVTKSFNRGEC
